The values that follow come from paper PMC12416549 (2024).

For this experiment, the target named is T1, TNFR1 (Homo sapiens, UniProt P19438).
T1 chain: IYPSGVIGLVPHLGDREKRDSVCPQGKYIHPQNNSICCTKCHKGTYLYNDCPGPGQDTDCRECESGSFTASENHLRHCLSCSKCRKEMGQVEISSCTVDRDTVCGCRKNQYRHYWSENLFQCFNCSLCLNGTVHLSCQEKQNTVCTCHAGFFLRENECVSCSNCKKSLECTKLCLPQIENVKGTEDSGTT
Put plainly: yeast display SC50.

B1: E81S (designed binder)
chain: SMEEEVEKAAKEYEKKKKEAIEKHLEKLKAKDKEAAERFLKELEEAAKEYAKDEAKTMSEEEAKRRAKKYKEKVLLSELSSEEQKEIKEAEEKLVRTILKYVEEAAK
B1: the “apparent Kd (screen)” value was determined as 0.79 nM.

B2: A30E (designed binder)
chain: SMEEEVEKAAKEYEKKKKEAIEKHLEKLKEKDKEAAERFLKELEEAAKEYAKDEAKTMSEEEAKRRAKKYKEKVLLSELSEEEQKEIKEAEEKLVRTILKYVEEAAK
With B2, the “apparent Kd (screen)” value was 0.277 nM.

B3: L79H (designed binder)
chain: SMEEEVEKAAKEYEKKKKEAIEKHLEKLKAKDKEAAERFLKELEEAAKEYAKDEAKTMSEEEAKRRAKKYKEKVLLSEHSEEEQKEIKEAEEKLVRTILKYVEEAAK
Take B3: the “apparent Kd (screen)” value stood at 13.8 nM.

B4: T57D (designed binder)
chain: SMEEEVEKAAKEYEKKKKEAIEKHLEKLKAKDKEAAERFLKELEEAAKEYAKDEAKDMSEEEAKRRAKKYKEKVLLSELSEEEQKEIKEAEEKLVRTILKYVEEAAK
For B4, the “apparent Kd (screen)” value was found to be 13.8 nM.

B5: T57F (designed binder)
chain: SMEEEVEKAAKEYEKKKKEAIEKHLEKLKAKDKEAAERFLKELEEAAKEYAKDEAKFMSEEEAKRRAKKYKEKVLLSELSEEEQKEIKEAEEKLVRTILKYVEEAAK
Take B5: the “apparent Kd (screen)” value is 0.0729 nM.

B6: K17Y (designed binder)
chain: SMEEEVEKAAKEYEKKYKEAIEKHLEKLKAKDKEAAERFLKELEEAAKEYAKDEAKTMSEEEAKRRAKKYKEKVLLSELSEEEQKEIKEAEEKLVRTILKYVEEAAK
With B6, the “apparent Kd (screen)” value was 0.446 nM.

B7: K29I (designed binder)
chain: SMEEEVEKAAKEYEKKKKEAIEKHLEKLIAKDKEAAERFLKELEEAAKEYAKDEAKTMSEEEAKRRAKKYKEKVLLSELSEEEQKEIKEAEEKLVRTILKYVEEAAK
For the molecule B7, the “apparent Kd (screen)” value worked out at 1.54 nM.

B8: L75Q (designed binder)
chain: SMEEEVEKAAKEYEKKKKEAIEKHLEKLKAKDKEAAERFLKELEEAAKEYAKDEAKTMSEEEAKRRAKKYKEKVQLSELSEEEQKEIKEAEEKLVRTILKYVEEAAK
On to B8, for which the “apparent Kd (screen)” value came out at 0.49 nM.

B9: E42W (designed binder)
chain: SMEEEVEKAAKEYEKKKKEAIEKHLEKLKAKDKEAAERFLKWLEEAAKEYAKDEAKTMSEEEAKRRAKKYKEKVLLSELSEEEQKEIKEAEEKLVRTILKYVEEAAK
For B9, the “apparent Kd (screen)” value came out at 0.49 nM.

B10: K15Q (designed binder)
chain: SMEEEVEKAAKEYEQKKKEAIEKHLEKLKAKDKEAAERFLKELEEAAKEYAKDEAKTMSEEEAKRRAKKYKEKVLLSELSEEEQKEIKEAEEKLVRTILKYVEEAAK
In the case of B10, the “apparent Kd (screen)” value came out at 0.956 nM.

B11: E44C (designed binder)
chain: SMEEEVEKAAKEYEKKKKEAIEKHLEKLKAKDKEAAERFLKELCEAAKEYAKDEAKTMSEEEAKRRAKKYKEKVLLSELSEEEQKEIKEAEEKLVRTILKYVEEAAK
As for B11, the “apparent Kd (screen)” value came out at 0.446 nM.

B12: R66Y (designed binder)
chain: SMEEEVEKAAKEYEKKKKEAIEKHLEKLKAKDKEAAERFLKELEEAAKEYAKDEAKTMSEEEAKRYAKKYKEKVLLSELSEEEQKEIKEAEEKLVRTILKYVEEAAK
B12: the “apparent Kd (screen)” value came to 13.8 nM.

B13: K68C (designed binder)
chain: SMEEEVEKAAKEYEKKKKEAIEKHLEKLKAKDKEAAERFLKELEEAAKEYAKDEAKTMSEEEAKRRACKYKEKVLLSELSEEEQKEIKEAEEKLVRTILKYVEEAAK
In the case of B13, the “apparent Kd (screen)” value came out at 3 nM.

B14: E78A (designed binder)
chain: SMEEEVEKAAKEYEKKKKEAIEKHLEKLKAKDKEAAERFLKELEEAAKEYAKDEAKTMSEEEAKRRAKKYKEKVLLSALSEEEQKEIKEAEEKLVRTILKYVEEAAK
Take B14: the “apparent Kd (screen)” value stood at 2.48 nM.

B15: E54F (designed binder)
chain: SMEEEVEKAAKEYEKKKKEAIEKHLEKLKAKDKEAAERFLKELEEAAKEYAKDFAKTMSEEEAKRRAKKYKEKVLLSELSEEEQKEIKEAEEKLVRTILKYVEEAAK
In the case of B15, the “apparent Kd (screen)” value turned out to be 0.405 nM.

B16: T57P (designed binder)
chain: SMEEEVEKAAKEYEKKKKEAIEKHLEKLKAKDKEAAERFLKELEEAAKEYAKDEAKPMSEEEAKRRAKKYKEKVLLSELSEEEQKEIKEAEEKLVRTILKYVEEAAK
For B16, the “apparent Kd (screen)” value was 6.43 nM.

B17: D53A (designed binder)
chain: SMEEEVEKAAKEYEKKKKEAIEKHLEKLKAKDKEAAERFLKELEEAAKEYAKAEAKTMSEEEAKRRAKKYKEKVLLSELSEEEQKEIKEAEEKLVRTILKYVEEAAK
With B17, the “apparent Kd (screen)” value amounted to 1.27 nM.

B18: K18A (designed binder)
chain: SMEEEVEKAAKEYEKKKAEAIEKHLEKLKAKDKEAAERFLKELEEAAKEYAKDEAKTMSEEEAKRRAKKYKEKVLLSELSEEEQKEIKEAEEKLVRTILKYVEEAAK
B18: the “apparent Kd (screen)” value was 0.79 nM.

B19: E3W (designed binder)
chain: SMWEEVEKAAKEYEKKKKEAIEKHLEKLKAKDKEAAERFLKELEEAAKEYAKDEAKTMSEEEAKRRAKKYKEKVLLSELSEEEQKEIKEAEEKLVRTILKYVEEAAK
On to B19, for which the “apparent Kd (screen)” value is 22.2 nM.

B20: E60I (designed binder)
chain: SMEEEVEKAAKEYEKKKKEAIEKHLEKLKAKDKEAAERFLKELEEAAKEYAKDEAKTMSIEEAKRRAKKYKEKVLLSELSEEEQKEIKEAEEKLVRTILKYVEEAAK
In the case of B20, the “apparent Kd (screen)” value came out at 0.49 nM.

B21: E34D (designed binder)
chain: SMEEEVEKAAKEYEKKKKEAIEKHLEKLKAKDKDAAERFLKELEEAAKEYAKDEAKTMSEEEAKRRAKKYKEKVLLSELSEEEQKEIKEAEEKLVRTILKYVEEAAK
Consider B21, for which the “apparent Kd (screen)” value turned out to be 0.718 nM.

B22: E14I (designed binder)
chain: SMEEEVEKAAKEYIKKKKEAIEKHLEKLKAKDKEAAERFLKELEEAAKEYAKDEAKTMSEEEAKRRAKKYKEKVLLSELSEEEQKEIKEAEEKLVRTILKYVEEAAK
For B22, the “apparent Kd (screen)” value is 5.84 nM.

B23: R65V (designed binder)
chain: SMEEEVEKAAKEYEKKKKEAIEKHLEKLKAKDKEAAERFLKELEEAAKEYAKDEAKTMSEEEAKVRAKKYKEKVLLSELSEEEQKEIKEAEEKLVRTILKYVEEAAK
On to B23, for which the “apparent Kd (screen)” value was determined as 1.4 nM.

B24: T97C (designed binder)
chain: SMEEEVEKAAKEYEKKKKEAIEKHLEKLKAKDKEAAERFLKELEEAAKEYAKDEAKTMSEEEAKRRAKKYKEKVLLSELSEEEQKEIKEAEEKLVRCILKYVEEAAK
Take B24: the “apparent Kd (screen)” value is 0.79 nM.

B25: R65H (designed binder)
chain: SMEEEVEKAAKEYEKKKKEAIEKHLEKLKAKDKEAAERFLKELEEAAKEYAKDEAKTMSEEEAKHRAKKYKEKVLLSELSEEEQKEIKEAEEKLVRTILKYVEEAAK
Take B25: the “apparent Kd (screen)” value turned out to be 1.54 nM.

B26: K16D (designed binder)
chain: SMEEEVEKAAKEYEKDKKEAIEKHLEKLKAKDKEAAERFLKELEEAAKEYAKDEAKTMSEEEAKRRAKKYKEKVLLSELSEEEQKEIKEAEEKLVRTILKYVEEAAK
With B26, the “apparent Kd (screen)” value amounted to 0.539 nM.

B27: K23D (designed binder)
chain: SMEEEVEKAAKEYEKKKKEAIEDHLEKLKAKDKEAAERFLKELEEAAKEYAKDEAKTMSEEEAKRRAKKYKEKVLLSELSEEEQKEIKEAEEKLVRTILKYVEEAAK
With B27, the “apparent Kd (screen)” value stood at 0.49 nM.

B28: K29Y (designed binder)
chain: SMEEEVEKAAKEYEKKKKEAIEKHLEKLYAKDKEAAERFLKELEEAAKEYAKDEAKTMSEEEAKRRAKKYKEKVLLSELSEEEQKEIKEAEEKLVRTILKYVEEAAK
For the molecule B28, the “apparent Kd (screen)” value is 0.956 nM.

B29: A35Q (designed binder)
chain: SMEEEVEKAAKEYEKKKKEAIEKHLEKLKAKDKEQAERFLKELEEAAKEYAKDEAKTMSEEEAKRRAKKYKEKVLLSELSEEEQKEIKEAEEKLVRTILKYVEEAAK
Turning to B29, the “apparent Kd (screen)” value stood at 0.869 nM.

B30: K64M (designed binder)
chain: SMEEEVEKAAKEYEKKKKEAIEKHLEKLKAKDKEAAERFLKELEEAAKEYAKDEAKTMSEEEAMRRAKKYKEKVLLSELSEEEQKEIKEAEEKLVRTILKYVEEAAK
For the molecule B30, the “apparent Kd (screen)” value is 0.653 nM.

B31: A9F (designed binder)
chain: SMEEEVEKFAKEYEKKKKEAIEKHLEKLKAKDKEAAERFLKELEEAAKEYAKDEAKTMSEEEAKRRAKKYKEKVLLSELSEEEQKEIKEAEEKLVRTILKYVEEAAK
As for B31, the “apparent Kd (screen)” value is 0.718 nM.

B32: A67S (designed binder)
chain: SMEEEVEKAAKEYEKKKKEAIEKHLEKLKAKDKEAAERFLKELEEAAKEYAKDEAKTMSEEEAKRRSKKYKEKVLLSELSEEEQKEIKEAEEKLVRTILKYVEEAAK
On to B32, for which the “apparent Kd (screen)” value stood at 1.54 nM.

B33: R96Q (designed binder)
chain: SMEEEVEKAAKEYEKKKKEAIEKHLEKLKAKDKEAAERFLKELEEAAKEYAKDEAKTMSEEEAKRRAKKYKEKVLLSELSEEEQKEIKEAEEKLVQTILKYVEEAAK
In the case of B33, the “apparent Kd (screen)” value stood at 1.4 nM.
